This is an account of results in patent US20210340268A1 (GENERAL HOSPITAL, published 2021).

Test [1] addresses T1, epitope containing residues 56-60 of SEQ ID NO: 7 within human TNFR2 (KCSPG) (human).
T1 construct: Motif within CRD1 of TNFR2
T1 peptide: KCSPG
The test can be described thus: epitope mapping analysis (peptide ELISA). On the technique in general: An ELISA detects its analyte on a solid surface through an enzyme-linked reagent.

In test [2] the target is T2, recombinant human TNFR2 (human tumor necrosis factor receptor 2) (human, UniProt P20333 23-257).
T2 sequence: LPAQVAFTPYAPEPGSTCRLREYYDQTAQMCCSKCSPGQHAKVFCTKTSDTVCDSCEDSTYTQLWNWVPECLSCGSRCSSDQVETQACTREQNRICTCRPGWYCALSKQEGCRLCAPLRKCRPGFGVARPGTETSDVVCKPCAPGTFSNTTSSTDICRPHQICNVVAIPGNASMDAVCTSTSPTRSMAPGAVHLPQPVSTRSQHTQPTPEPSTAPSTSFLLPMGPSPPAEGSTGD
The test can be described thus: SPR (Biacore 3000), biotinylated antibody captured on streptavidin, recombinant human TNFR2 in solution. The procedure: The affinities of antagonistic TNFR2 antibodies for recombinant human TNFR2 were measured using BIACORE™ Analysis Services (Precision Antibody). Briefly, the antibody was biotinylated at a 5:1 stoichiometric ratio using biotinyl-LC-LC-[…] (Thermo-Fisher) in PBS. Excess biotinylation reagent was removed by centrifugation chromatography and the biotinylated antibody was captured on 3000 RU of streptavidin surface to a level of 100 RU. […] Analysis of the kinetics of antigen binding was performed at a flow of 60 μL/min with 2 min injections. Antibodies were injected at a concentration of 1 mg/ml to the final capture of 100 RU. The instrument used was BIACORE™ 3000 with the BioCap chip (GE Healthcare). Double reference method was used for analysis. Reference channel contained the identical level of streptavidin.
For orientation: Surface plasmon resonance follows binding to a sensor surface in real time, without labels.

B1: TNFRAB1 (antibody, V domains shown)
VH: EVQLQESGGGLVKPGGSLKLSCAASGFTFSSYVMSWVRQTPEKRLEWVATISSGGSYTYYPDSVKGRFTISRDNAKNTLYLQMSSLRSEDTAMYYCARQRVDGYSSYWYFDVWGAGTAVTVSS
VL: DIVLTQSPAIMSASPGEKVTITCSASSSVYYMYWFQQKPGTSPKLWIYSTSNLASGVPVRFSGSGSGTSYSLTISRMEAEDAATYYCQQRRNYPYTFGGGTKLEIKR
notes: Murine monoclonal antibody with two heavy and two light chains; also called antagonistic TNFR2 antibody TNFRAB1
As usually defined, the Kd is the concentration at which binding is half-saturated. In general, koff refers to a measure of how fast the partners let go of each other. What is called kon is the second-order rate constant of association. With B1, the binding result in test [1] was “no binding”. Moreover, in test [2], the dissociation constant (Kd) is around 0.0444 nM, the koff came to 0.000221 s⁻¹ and the kon turned out to be 4.98e+06 M⁻¹ s⁻¹.
